Results published in article PMC12828403.

Target: polyketide synthase 16 (Pks16) (Dictyostelium discoideum (endogenous in AX2-214 cells)) (UniProt Q869W9)
Assay: cryo-EM structure; shotgun EM of endogenous assemblies in a heterogeneous pool of SEC and mixed-bed IEX fractions of D. discoideum lysate; 50 mM Hepes pH 7.4, 100 mM NaCl, 3 mM MgSO4, 0.1 mM EGTA, 1 mM DTT, 2% glycerol; 200 kV Glacios; proteins identified by MS of the same sample; AlphaFold 3 models fitted into the maps

**Q.** For “polyketide synthase 16 (Pks16), Q869W9 1-2603”, which stoichiometry N is on record?
**A.** 2
